{"source": "patent US10519238", "about": "(Dana-Farber, dated 2019)", "binders": {"B1": {"name": "anti-Gal1 monoclonal antibody 8A12.H9.H10 (antibody, V domains shown)", "VH": "QAYLQQSGAELVRPGASVRMSCKASGYTFTRYNMHWVKQTPRQGLEWIGRIYPGNGDTSYNQKFKGKATLTVDKSSSTAYMQLSSLTSEDSAVYFCTVWDYWGQGTTLTVSS", "VL": "not shown", "notes": "Murine monoclonal antibody from a hybridoma with a kappa light chain; Signal peptide limits are stated in base pairs and were converted to residues; also called 8A12 mAb; 8A12 antibody"}}, "key": {"[1]": {"biological_target": "T1, recombinant GST-tagged full length human Gal1 (F7) (human, UniProt P09382 1-135)", "T1 construct": "Produced in E. coli; also called GST-F7; not shown: glutathione S-transferase (GST) tag", "T1 sequence (P09382 whole entry, the tested form may be a part)": "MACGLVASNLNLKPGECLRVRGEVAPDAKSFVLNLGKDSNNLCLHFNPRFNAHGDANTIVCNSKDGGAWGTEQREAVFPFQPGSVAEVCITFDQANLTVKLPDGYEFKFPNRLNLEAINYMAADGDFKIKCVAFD", "assay": "Western blot", "protocol": "Anti-Gal1 monoclonal antibodies were generated and were determined to cross-react well with both human Gal1 and mouse Gal1 (FIG. 1). […] Six recombinant human Gal1 fragments (covering the N-terminal, CBD, post-CBD sequences) named F1, F2, F3, F4, F5, F6 and the full length protein F7 in fusion with GST-tag were produced in E. coli (FIG. 2)."}, "[2]": {"biological_target": "T2, endogenous human Gal1 (galectin-1) in lysates of the human Hodgkin lymphoma line L428 (human, UniProt P09382 2-135)", "T2 construct": "Endogenous protein in cell lysate, seen as a band of ~14 kDa on Western blot; also called hGal1", "T2 sequence (P09382 2-135 limits assumed)": "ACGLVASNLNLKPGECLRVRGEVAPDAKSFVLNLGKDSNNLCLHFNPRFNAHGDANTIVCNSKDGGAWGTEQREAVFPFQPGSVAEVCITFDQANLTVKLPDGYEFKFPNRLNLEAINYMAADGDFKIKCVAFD", "assay": "Western blot of L428 cell lysate, antibody titration", "excerpt": "(§1) WB analysis of cell lysates derived from human Hodgkin lymphoma line, L428 and murine melanoma line, B16-F10. Lysates were probed with 8A12 at different titration showing a specific band of Gal1 (~14 kDa), 8A12 recognizes endogenous human and murine Gal1 at similar range of titres."}, "[3]": {"biological_target": "T3, endogenous murine Gal1 (galectin-1) in lysates of the murine melanoma line B16-F10 (mouse, UniProt P16045 2-135)", "T3 construct": "Endogenous protein in cell lysate, seen on Western blot; also called mouse Gal1", "T3 sequence (P16045 2-135 limits assumed)": "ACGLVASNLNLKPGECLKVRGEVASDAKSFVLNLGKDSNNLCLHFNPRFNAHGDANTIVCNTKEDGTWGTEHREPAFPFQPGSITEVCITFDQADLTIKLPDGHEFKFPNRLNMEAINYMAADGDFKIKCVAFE", "assay": "Western blot of B16-F10 cell lysate, antibody titration", "excerpt": "as §1"}, "[4]": {"biological_target": "T4, recombinant human galectin-2 (R&D Systems) (human, UniProt P05162 1-132, limits assumed)", "T4 construct": "also called Gal2", "T4 sequence (looked up)": "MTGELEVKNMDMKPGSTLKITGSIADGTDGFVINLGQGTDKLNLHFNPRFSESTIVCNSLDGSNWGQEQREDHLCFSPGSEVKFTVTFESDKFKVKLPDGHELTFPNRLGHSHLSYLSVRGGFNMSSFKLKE", "assay": "SPR (BIAcore 3000), 8A12 captured via anti-mouse antibody, galectin as analyte", "protocol": "(§2) Surface Plasmon Resonance (SPR) analyses (also called Biomolecular Interaction Analysis, BIAcore) were also conducted in order to further define the biophysical properties (e.g., $kon$, $koff$, $koff/kon$ (K_D) of Gal1's interaction with the 8A12 mAb. SPR experiments were performed at 25° C. in the standard BIAcore running buffer HBS-EP on a BIAcore 3000 Instrument (BIAcore). In brief, anti-mouse antibody was first captured on the CM-5 sensor chip ((GE HealthCare). Afterwards, approximately 250 response units (RU) of anti-Gal1 mAb 8A12 were immobilized (with exception of ~350 RU for rmGal1 assay) and followed by various dilutions of recombinant galectin (human galetin-1, 2, 3, 4, 7, 8, 9 or murine galectin-1 (mGal1), from R&D Systems) to assess the binding of galectin 8A12. All data are shown after subtraction from a channel loaded with buffer alone. Data analysis to obtain the binding curves shown and equilibrium dissociation constant (KD) was performed using BIAevaluation 3.1 (BIAcore) by globally fitting the data to a simple 1:1 (Langmuir) binding model."}, "[5]": {"biological_target": "T5, recombinant human galectin-3 (R&D Systems) (human, UniProt P17931 2-250)", "T5 construct": "also called Gal3", "T5 sequence (P17931 2-250 limits assumed)": "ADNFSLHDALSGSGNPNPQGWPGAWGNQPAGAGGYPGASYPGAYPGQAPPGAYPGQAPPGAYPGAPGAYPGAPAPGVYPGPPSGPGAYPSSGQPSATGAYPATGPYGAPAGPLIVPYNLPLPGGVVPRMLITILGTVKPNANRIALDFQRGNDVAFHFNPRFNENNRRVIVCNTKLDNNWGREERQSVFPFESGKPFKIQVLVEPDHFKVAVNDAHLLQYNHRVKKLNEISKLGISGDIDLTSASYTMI", "assay": "SPR (BIAcore 3000), 8A12 captured via anti-mouse antibody, galectin as analyte", "protocol": "as §2"}, "[6]": {"biological_target": "T6, recombinant human galectin-4 (R&D Systems) (human, UniProt P56470 2-323, limits assumed)", "T6 construct": "also called Gal4", "T6 sequence (looked up)": "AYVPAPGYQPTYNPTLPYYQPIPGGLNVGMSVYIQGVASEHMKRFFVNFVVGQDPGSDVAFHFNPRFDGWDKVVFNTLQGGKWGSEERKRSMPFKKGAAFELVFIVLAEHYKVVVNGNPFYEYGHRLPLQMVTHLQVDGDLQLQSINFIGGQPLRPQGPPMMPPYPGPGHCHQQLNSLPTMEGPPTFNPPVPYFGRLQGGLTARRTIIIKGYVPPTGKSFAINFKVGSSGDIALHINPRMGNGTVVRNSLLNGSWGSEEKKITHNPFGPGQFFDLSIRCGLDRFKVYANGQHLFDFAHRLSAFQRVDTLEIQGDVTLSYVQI", "assay": "SPR (BIAcore 3000), 8A12 captured via anti-mouse antibody, galectin as analyte", "protocol": "as §2"}, "[7]": {"biological_target": "T7, recombinant human galectin-7 (R&D Systems) (human, UniProt P47929 2-136, limits assumed)", "T7 construct": "also called Gal7", "T7 sequence (P47929 2-136 limits assumed)": "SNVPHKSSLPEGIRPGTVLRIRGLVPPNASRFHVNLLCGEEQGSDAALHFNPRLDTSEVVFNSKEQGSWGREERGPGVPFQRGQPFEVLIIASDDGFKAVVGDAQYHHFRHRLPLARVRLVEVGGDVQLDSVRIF", "assay": "SPR (BIAcore 3000), 8A12 captured via anti-mouse antibody, galectin as analyte", "protocol": "as §2"}, "[8]": {"biological_target": "T8, recombinant human galectin-8 (R&D Systems) (human, UniProt O00214 1-317, limits assumed)", "T8 construct": "also called Gal8", "T8 sequence (looked up)": "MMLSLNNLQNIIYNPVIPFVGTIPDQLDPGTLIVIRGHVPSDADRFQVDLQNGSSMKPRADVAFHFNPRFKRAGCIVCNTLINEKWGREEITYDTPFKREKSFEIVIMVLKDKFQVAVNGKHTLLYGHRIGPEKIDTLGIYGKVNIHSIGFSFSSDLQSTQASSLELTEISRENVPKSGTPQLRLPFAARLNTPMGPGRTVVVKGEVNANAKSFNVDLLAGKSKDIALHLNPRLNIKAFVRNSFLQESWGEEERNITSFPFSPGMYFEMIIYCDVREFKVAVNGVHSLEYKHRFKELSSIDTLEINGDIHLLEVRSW", "assay": "SPR (BIAcore 3000), 8A12 captured via anti-mouse antibody, galectin as analyte", "protocol": "as §2"}, "[9]": {"biological_target": "T9, recombinant human galectin-9 (R&D Systems) (human, UniProt O00182-2 2-323, limits assumed)", "T9 construct": "also called Gal9", "T9 sequence (O00182 other isoform, or with tags, fused parts or gaps limits assumed)": "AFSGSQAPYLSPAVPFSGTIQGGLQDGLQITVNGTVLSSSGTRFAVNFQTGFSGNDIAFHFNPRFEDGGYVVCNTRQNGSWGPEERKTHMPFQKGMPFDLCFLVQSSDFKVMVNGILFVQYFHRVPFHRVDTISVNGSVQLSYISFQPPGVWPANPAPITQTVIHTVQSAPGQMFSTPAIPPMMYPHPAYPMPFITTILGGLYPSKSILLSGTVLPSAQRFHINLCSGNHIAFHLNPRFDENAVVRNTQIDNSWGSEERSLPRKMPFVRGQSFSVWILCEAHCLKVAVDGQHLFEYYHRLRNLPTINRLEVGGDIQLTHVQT", "assay": "SPR (BIAcore 3000), 8A12 captured via anti-mouse antibody, galectin as analyte", "protocol": "as §2"}, "[10]": {"biological_target": "T10, recombinant human galectin-1 (R&D Systems) (human, UniProt P09382 2-135)", "T10 construct": "Bought from R&D Systems; also called rhGal1; human galetin-1", "T10 sequence (P09382 2-135 limits assumed)": "as the sequence (P09382 2-135 limits assumed) above", "assay": "SPR (BIAcore 3000, 25 C), 8A12 captured via anti-mouse antibody, galectin as analyte, 1:1 Langmuir fit", "protocol": "as §2"}, "[11]": {"biological_target": "T11, recombinant murine galectin-1 (R&D Systems) (mouse, UniProt P16045 2-135)", "T11 construct": "Bought from R&D Systems; also called rmGal1; mGal1", "T11 sequence (P16045 2-135 limits assumed)": "as the sequence (P16045 2-135 limits assumed) above", "assay": "SPR (BIAcore 3000, 25 C), 8A12 captured via anti-mouse antibody, galectin as analyte, 1:1 Langmuir fit", "protocol": "as §2"}}}
{"binder": "B1", "values": [{"measurement": "binding result", "setting": "[1]", "result": "binds"}, {"measurement": "binding result", "setting": "[2]", "result": "binds"}, {"measurement": "binding result", "setting": "[3]", "result": "binds"}, {"measurement": "binding result", "setting": "[4]", "result": "no binding"}, {"measurement": "binding result", "setting": "[5]", "result": "no binding"}, {"measurement": "binding result", "setting": "[6]", "result": "no binding"}, {"measurement": "binding result", "setting": "[7]", "result": "no binding"}, {"measurement": "binding result", "setting": "[8]", "result": "no binding"}, {"measurement": "binding result", "setting": "[9]", "result": "no binding"}, {"measurement": "binding result", "setting": "[10]", "result": "binds"}, {"measurement": "binding result", "setting": "[11]", "result": "binds"}]}
